Measurements published in article PMC11021448.
pKd: −log10 of the molar value.

Columns and labels:
[1] = target: 6xHis-CtpA(ΔN37, S302A), purified alone (Pseudomonas aeruginosa); experiment: negative staining EM; CtpA(S302A) 10 μg/ml on carbon grids prepared at room temperature, uranium formate stain, 2D classification
[2] = target: 6xHis-CtpA(ΔN37, ΔC6) (Pseudomonas aeruginosa); experiment: SEC; CtpA or CtpAΔC6 alone incubated at 30 °C for 15 min in 20 mM Tris pH 7.5, 5 mM MgCl2, 100 mM KCl; Superdex 200 increase
[3] = target: 6xHis-CtpA(ΔN37, ΔC6) (Pseudomonas aeruginosa); experiment: SEC; separately purified CtpA (or CtpAΔC6) mixed with LbcA at molar ratios 6:1, 6:2, 6:3, 30 °C for 15 min in 20 mM Tris pH 7.5, 5 mM MgCl2, 100 mM KCl; Superdex 200 increase; peaks analysed by SDS-PAGE
[4] = target: 6xHis-CtpA(ΔN37, ΔC6) (Pseudomonas aeruginosa); experiment: cryo-EM 2D class averages of a cross-linked mixture; CtpAΔC6 mixed with LbcA at 6:4 molar ratio, 30 °C for 15 min in 20 mM HEPES pH 7.5, 5 mM MgCl2, 100 mM KCl, cross-linked with 1 mM BS(PEG)9 on ice overnight; 2D classification
[5] = target: CtpA as used in the gel filtration experiments (Pseudomonas aeruginosa); experiment: not stated; CtpA alone on ice at 4 °C (Appendix Fig. S12a)
[6] = target: CtpA as used in the gel filtration experiments (Pseudomonas aeruginosa); experiment: SEC; CtpA or CtpAΔC6 alone incubated at 30 °C for 15 min in 20 mM Tris pH 7.5, 5 mM MgCl2, 100 mM KCl; Superdex 200 increase
[7] = target: CtpA as used in the gel filtration experiments (Pseudomonas aeruginosa); experiment: as above; remark: listed apart in the source
[8] = target: CtpA as used in the gel filtration experiments (Pseudomonas aeruginosa); experiment: SEC; separately purified CtpA (or CtpAΔC6) mixed with LbcA at molar ratios 6:1, 6:2, 6:3, 30 °C for 15 min in 20 mM Tris pH 7.5, 5 mM MgCl2, 100 mM KCl; Superdex 200 increase; peaks analysed by SDS-PAGE
[9] = target: CtpA(ΔN37, S302A), co-expressed with LbcA(ΔN31), 6xHis tag removed (Pseudomonas aeruginosa); experiment: cryo-EM structure; co-expressed CtpA(ΔN37, S302A)-LbcA(ΔN31) complex purified by HiTrap Ni, HiTrap Q and Superose 6 Increase (20 mM Tris pH 7.5, 5 mM MgCl2, 100 mM KCl, 1 mM DTT), 0.8 mg/ml; single particle analysis; molar ratio judged by band intensity in stained SDS-PAGE gels
[10] = target: 6xHis-CtpA(ΔN37), wild type (Pseudomonas aeruginosa); experiment: ITC; 250 μM LbcA in the syringe titrated into 9 μM CtpA hexamer (32 μM for CtpAΔC6 dimer) in the cell; 25 °C; 20 mM Tris pH 7.5, 5 mM MgCl2, 100 mM KCl; one-site fit
[11] = target: 6xHis-CtpA(ΔN37, S302A), purified alone (Pseudomonas aeruginosa); experiment: as above
[12] = target: 6xHis-CtpA(ΔN37, ΔC6) (Pseudomonas aeruginosa); experiment: as above

For “6xHis-CtpA(ΔN37, S302A), purified alone (enzyme)”, the stoichiometry N [1] was 2.

Work on 6xHis-CtpA(ΔN37, ΔC6) (enzyme) yielded a stoichiometry N [2] of 2, a stoichiometry N [3] of 2 and a stoichiometry N [4] of 2.

“CtpA as used in the gel filtration experiments (printed only as CtpA) (enzyme)” was tested, and the stoichiometry N [5] was 6, the stoichiometry N [6] was 2 and the stoichiometry N [7] was 6. The stoichiometry N [8] was 6.

Substance “CtpA(ΔN37, S302A), co-expressed with LbcA(ΔN31), 6xHis tag removed (enzyme)” has a stoichiometry N [9] of 6.

“LbcA(ΔN31) with C-terminal 6xHis tag, purified alone (natural protein)” gave a pKd [10] of 6.04, a pKd [11] of 6.12 and a stoichiometry N (LbcA per CtpA dimer) [11] of 1. For the same substance, the pKd [12] was 6.07 and the stoichiometry N (CtpA:LbcA (molar ratio)) [8] was 2.

In the case of “LbcA(ΔN31), co-expressed with CtpA(ΔN37, S302A) (natural protein)”, the stoichiometry N (CtpA:LbcA (molar ratio)) [9] was 2.
